For 2 molecules, Kd results are on record in publication PMC11952830.

For this assay, the target named is actin (rabbit muscle), P68135. Put plainly: fluorescence anisotropy. The note with it: chain shown with the change, actin filaments titrated 0-12 µM. In general terms: Polarisation of emitted light reports the rotation of a fluorescent probe.

Numbering of substitutions follows the chain as printed.

B1: Cdc42EP3 labeled with tetramethylrhodamine (TMR) at C211, Q9UKI2 KLP->AAA (protein)
chain: MPAKTPIYLKAANNKKGKKFKLRDILSPDMISPPLGDFRHTIHIGKEGQHDVFGDISFLQGNYELLPGNQEKAHLGQFPGHNEFFRANSTSDSVFTETPSPVLKNAISLPTIGGSQALMLPLLSPVTFNSKQESFGPAAAARLSAEPVMEEKAQEKSSLLENGTVHQGDTSWGSSGSASQSSQGRDSHSSSLSEQYPDWPAEDMFDHPTPCELIKGKTKSEESLSDLTGSLLSLQLDLGPSLLDEVLNVMDKNK
A word on the Kd: it is a measure of binding affinity in units of concentration. B1 gave a Kd (20 nM TMR-labeled KLP-AAA Cdc42EP3 (TMR at C211) held fixed) of 3.4 µM. This lies in the single-digit micromolar range.

B2: Cdc42EP3 labeled with tetramethylrhodamine (TMR) at C211, Q9UKI2 IS->AA (protein)
chain: B1 chain with I31A, S32A, A139K, A140L, A141P
B2 came in with a Kd (20 nM TMR-labeled IS-AA Cdc42EP3 (TMR at C211) held fixed) of 2.8 µM. That is a single-digit micromolar value.
